From paper PMC3268689 (Molecular Cell, 2009) come the findings set out here.

This data set concerns the molecule itself. In words: SEC. Background: SEC sorts molecules by how far they enter the pores of the column.

B1: PAN nucleotidase domain (residues 155-430) (domain or fragment, Methanocaldococcus jannaschii, UniProt Q58576 155-430, looked up)
chain: RAKAMEVDERPNVRYEDIGGLEKQMQEIREVVELPLKHPELFEKVGIEPPKGILLYGPPGTGKTLLAKAVATETNATFIRVVGSELVKKFIGEGASLVKDIFKLAKEKAPSIIFIDEIDAIAAKRTDALTGGDREVQRTLMQLLAEMDGFDARGDVKIIGATNRPDILDPAILRPGRFDRIIEVPAPDEKGRLEILKIHTRKMNLAEDVNLEEIAKMTEGCVGAELKAICTEAGMNAIRELRDYVTMDDFRKAVEKIMEKKKVKVKEPAHLDVLYR
In the case of B1, the stoichiometry N (as a rule, a count of units in the complex or per binding partner) was found to be 6.

B2: PAN subcomplex I fragment (residues 74-150), coiled-coil OB-fold domain (domain or fragment, Methanocaldococcus jannaschii, UniProt Q58576 74-150, looked up)
chain: MKENEILRRELDRMRVPPLIVGTVVDKVGERKVVVKSSTGPSFLVNVSHFVNPDDLAPGKRVCLNQQTLTVVDVLPE
modifications: selenomethionine (in the crystals used for MAD phasing and refinement)
Take B2: the “stoichiometry N” value was 6.
